According to patent publication US20020173049A1:
Non-standard residues stand in square brackets, D forms with d. No end group written: not given here. Ahx = NCCCCCC(=O)O

Molecular target: E3α (rabbit)
Assay: cell-based or functional assay

Phe-[Ahx]-Cys
TCA-soluble 125I (cpm) from [125I]-lysozyme degradation in rabbit reticulocyte lysate at the 2 hour time point; no treatment 12,475 cpm: 3590 cpm
